The values that follow come from US20240209078A1 (Amgen, published 2024).

Changes are numbered by the printed parent chain. Names may count otherwise. Where two headings read alike, the source gives them in different places.

In experiment [1] the target is T1, mouse MSLN protein (mouse, UniProt Q61468 298-600).
T1 construct: whole, on cells; also called full-length mouse MSLN
T1 sequence (looked up): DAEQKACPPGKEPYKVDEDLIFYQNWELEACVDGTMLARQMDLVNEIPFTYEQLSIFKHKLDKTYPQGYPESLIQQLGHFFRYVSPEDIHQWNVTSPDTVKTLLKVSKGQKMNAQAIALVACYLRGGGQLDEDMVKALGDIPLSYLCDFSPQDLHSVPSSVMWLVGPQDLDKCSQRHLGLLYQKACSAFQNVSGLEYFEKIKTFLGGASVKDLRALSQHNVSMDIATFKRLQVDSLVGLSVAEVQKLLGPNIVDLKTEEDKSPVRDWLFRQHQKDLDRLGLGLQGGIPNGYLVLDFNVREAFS
The experiment in a line: flow cytometry on transfected CHO cells. (In flow cytometry, cells or beads pass a laser one at a time.)

For experiment [2], the target named is T2, human CDH3 (Cadherin-3, P-Cadherin) (human, UniProt P22223 108-829). Briefly: cell-based or functional assay.
Experiment [3] addresses T2, human CDH3 (Cadherin-3, P-Cadherin). The experiment in a line: cell-based or functional assay. This is another data set of the same source.
Experiment [4] has the same target. Briefly: cell-based or functional assay. The source holds these as a separate data set.
Experiment [5] shares this target. Briefly: cell-based or functional assay. The source holds these as a separate data set.
For experiment [6] the target is unchanged. The experiment in a line: cell-based or functional assay. The source holds these as a separate data set.
For experiment [7] the target is unchanged. The experiment in a line: cell-based or functional assay. The source holds these as a separate data set.
For experiment [8] the target is unchanged. Briefly: cell-based or functional assay. The source holds these as a separate data set.

B1: CH3 15-E11 VAG CC×I2L×G4×scFc×MS 15-B12 CC×I2L clipopt ID (SEQ ID NO 434) (bispecific antibody)
chain: QVQLVQSGAEVKKPGASVKVSCKASGYTFTNYWMNWVRQAPGQCLEWMGNIAYGVAGTNYNQKFQGRVTMTVDTSSSTAYMELSRLRSDDTAVYYCATRYFYVMDYWGQGTLVTVSSGGGGQGGGGQGGGGQDIQMTQSPSSLSASVGDRVTITCRASQDISNYLNWYQQKPGKVPKLLIYYTSRLHSGVPSRFSGSGSGTDFTLTISSLQPEDVATYYCVQYAQFPLTFGCGTKVEIKSGGGGQEVQLVESGGGLVQPGGSLKLSCAASGFTFNKYAMNWVRQAPGKGMEWVARIRSKYNNYATYYADAVKDRFTISRDDSKNTLYLQMNNLKTEDTAVYYCVRAGNFGSSYISYFAYWGQGTLVTVSSGGGGQGGGGQGGGGQQTVVTQEPSLTVSPGGTVTITCGSSTGAVTSGNYPNWIQKKPGQAPRGLIGGTKFLAPGTPARFSGSLEGGKAALTLSGVQPEDEAEYYCVLYYSNRWVFGSGTKLTVLGGGGCPPCPAPELLGGPSVFLFPPKPKDTLMISRTPEVTCVVVDVSHEEPEVKFNWYVDGVEVHNAKTKPCEEQYGSTYRCVSVLTVLHQDWLNGKEYKCKVSNKALPAPIEKTISKAKGQPREPQVYTLPPSREEMTKNQVSLTCLVKGFYPSDIAVEWESNGQPENNYKTTPPVLDSDGSFFLYSKLTVDKSRWQQGNVFSCSVMHEALHNHYTQKSLSLSPGKGGGGQGGGGQGGGGQGGGGQGGGGQGGGGQCPPCPAPELLGGPSVFLFPPKPKDTLMISRTPEVTCVVVDVSHEEPEVKFNWYVDGVEVHNAKTKPCEEQYGSTYRCVSVLTVLHQDWLNGKEYKCKVSNKALPAPIEKTISKAKGQPREPQVYTLPPSREEMTKNQVSLTCLVKGFYPSDIAVEWESNGQPENNYKTTPPVLDSDGSFFLYSKLTVDKSRWQQGNVFSCSVMHEALHNHYTQKSLSLSPGKGGGGQVQLQESGPGLVKPSETLSLTCTVSGGSISSSSYFWGWIRQPPGKCLEWIGNIYYSGSSNYNPSLKSRVTISVDTSKNQFSLKLSSVTAADTAVYYCARLPRGDRDAFDIWGQGTMVTVSSGGGGQGGGGQGGGGQDIVMTQSPSSLSASVGDRVTITCRASQGISNYLAWYQQKPGKVPKLLIYAASTLQSGVPSRFSGSGSGTDFTLTISSLQPEDFATYYCQQSYSTPFTFGCGTKVEIKSGGGGQEVQLVESGGGLVQPGGSLKLSCAASGFTFNKYAMNWVRQAPGKGMEWVARIRSKYNNYATYYADAVKDRFTISRDDSKNTLYLQMNNLKTEDTAVYYCVRAGNFGSSYISYFAYWGQGTLVTVSSGGGGQGGGGQGGGGQQTVVTQEPSLTVSPGGTVTITCGSSTGAVTSGNYPNWIQKKPGQAPRGLIGGTKFLAPGTPARFSGSLEGGKAALTLSGVQPEDEAEYYCVLYYSNRWVFGSGTKLTVL
notes: single-chain multitargeting CDH3 x CD3 - scFc - MSLN x CD3 engager; also called K3T
For the molecule B1, in experiment [1], the binding result is reported as “no binding (tested: 5 µg/mL)”. Besides, the “cytotoxicity EC50, GSU KO MSLN cells” value in experiment [2] stood at 0.245 nM. Besides, the “cytotoxicity EC50, HCT 116 KO MSLN cells” value in experiment [3] stood at 0.0015 nM.

B2: CH3 15-E11 CC×I2L×G4×scFc×G4×MS 15-B12 CC×I2L_GQ (SEQ ID NO 251) (bispecific antibody)
chain: B1 chain with A56K
notes: single-chain multitargeting engager; also called F5Q
As to B2, the “cytotoxicity EC50, GSU KO MSLN cells” value in experiment [4] is 3.24 nM. The “cytotoxicity EC50, HCT 116 KO MSLN cells” value in experiment [5] is 0.0087 nM. For the same molecule, the binding result in experiment [1] was “no binding (tested: 5 µg/mL)”. For the same molecule, in experiment [6], the “cytotoxicity EC50, E:T ratio 1:1, GSU KO MSLN cells” value was determined as 0.322 nM; the “cytotoxicity EC50, E:T ratio 1:2, GSU KO MSLN cells” value came to 0.341 nM; the “cytotoxicity EC50, E:T ratio 10:1, GSU KO MSLN cells” value was 0.098 nM. In addition, the “cytotoxicity EC50, GSU KO MSLN cells” value in experiment [7] turned out to be 3.24 nM. Further, the “cytotoxicity EC50, HCT 116 KO MSLN cells” value in experiment [8] is 0.0087 nM.
